According to publication PMC5673658, “Single-Molecule Fluorescence Methods to Study Plant Hormone Signal Transduction Pathways” (Frontiers in Plant Science, 2017):

Legend:
[1] = biological target: phosphorylated BES1 (pBES1), BES1 with a His-tag phosphorylated by BIN2 (UniProt Q9LN63); assay: CoSMoS (colocalization single-molecule spectroscopy, TIRFM); His-tagged pBES1 immobilised on the slide; binding percentage of 14-3-3κ with pBES1 before and after incubation for 1 h with pBKI1C at >1,000 times the concentration of pBES1
Sequence of phosphorylated BES1 (pBES1), BES1 with a His-tag phosphorylated by BIN2 (Q9LN63 whole entry): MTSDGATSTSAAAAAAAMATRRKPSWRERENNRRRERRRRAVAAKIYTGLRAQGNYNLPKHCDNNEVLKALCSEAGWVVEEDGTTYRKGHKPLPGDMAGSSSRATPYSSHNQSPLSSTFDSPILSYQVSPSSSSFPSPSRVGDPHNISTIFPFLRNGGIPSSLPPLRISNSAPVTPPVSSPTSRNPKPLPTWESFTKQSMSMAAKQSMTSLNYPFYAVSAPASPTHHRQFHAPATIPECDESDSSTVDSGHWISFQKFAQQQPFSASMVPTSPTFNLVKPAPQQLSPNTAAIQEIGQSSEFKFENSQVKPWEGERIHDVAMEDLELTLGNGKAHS

[2] = biological target: 14-3-3κ as used in the CoSMoS competition experiment (UniProt P48348); assay: as above
[3] = biological target: the molecule itself; assay: single-molecule TIRF microscopy, stepwise photobleaching; His-tagged BES1 phosphorylated by BIN2 (30 min, 37°C) immobilised on the slide; 14-3-3κ/C103S-alexa555 added; bleaching steps counted in 188 trajectories; labeling efficiency 34.7%

Which binding percentage of 14-3-3κ with pBES1 before pBKI1C [1] does the source give for “14-3-3κ as used in the CoSMoS competition experiment (from UniProt P48348 1-248)” here?
Its binding percentage of 14-3-3κ with pBES1 before pBKI1C is 18%.

Which binding percentage of 14-3-3κ with pBES1 left after pBKI1C (>1,000 times the concentration of pBES1, 1 h) [2] does the source give for “phosphorylated BKI1 C terminal (pBKI1C), BKI1C phosphorylated by JKC (domain or fragment)” here?
The binding percentage of 14-3-3κ with pBES1 left after pBKI1C (>1,000 times the concentration of pBES1, 1 h) was 9%.

B1: alexa555-labeled 14-3-3κ/C103S (natural protein, UniProt P48348 1-248, looked up)
chain: MATTLSRDQYVYMAKLAEQAERYEEMVQFMEQLVSGATPAGELTVEERNLLSVAYKNVIGSLRAAWRIVSSIEQKEESRKNEEHVSLVKDYRSKVETELSSISSGILRLLDSHLIPSATASESKVFYLKMKGDYHRYLAEFKSGDERKTAAEDTMIAYKAAQDVAVADLAPTHPIRLGLALNFSVFYYEILNSSEKACSMAKQAFEEAIAELDTLGEESYKDSTLIMQLLRDNLTLWTSDMQEQMDEA
modifications: alexa555 (maleimide derivative) on a cysteine, site not given; labeling efficiency 34.7%
notes: 14-3-3κ (14-3-3 kappa), a plant 14-3-3 protein of the brassinosteroid signaling pathway; printed molecular weight 29073.70 D; also called 14-3-3κ/C103S-alexa555; 14-3-3κ-alexa555; source: E. coli BL21 (DE3)-plysS, purified (amylose and gel filtration columns)
Which “stoichiometry N” value [3] does the source give for B1 here?
Its value is 2.
